Test results published in US20220289830A1.

Molecular target: native PcrV on live Pseudomonas aeruginosa (strains O6-57/66, O11-PA103, O1-52/66, O16-177/81) (Pseudomonas aeruginosa)
Assay: cell-based or functional assay

Row | Binder | RBC lysis assay IC50 (P. aeruginosa strain 57/66(O6)) [µg/mL]
1 | 2D3 (antibody, V domains shown) VH: EVQLLESGGGLVQPGGSLRLSCTASGFTFSDNHMSWVRQAPGKGLDWVSGISESGGSTYYADSVKGRFSTSRDNSKSTLYLDMNSLRAEDTAIYYCAKGRFSYDTRHFFRAVYGMDVWGQGTAVTVSS VL: DIQLTQSPSSLSASVGDRVTITCRASQGISSYLAWYQQKPGKAPKLLIYAASTLQSGVPSRFSGSGSGTDFTLTISSLQPEDFATYYCQQLSSYPLSFGGGTKVEIK | 0.05
2 | 7B1-1F5 (antibody, V domains shown) VH: EVQLLESGGGLVQPGGSLRLSCTASGFTFSDNYMSWVRQAPGKGLDWVSVISESGGSTNYADSVKGRFSTSRDNSKSTLYLDMNSLRAEDTAIYYCAKGRFSTLSSHFFRAVYGMDVWGQGTAVTVSS VL: DIQLTQSPSSFSASTGDRVTITCRASQGISSYLAWYQQKPGKAPKVLIYAASTLQSGVPSRFSGSGSGTEFTLTISSLQPEDFATYYCQQLKSYPLTFGGGTKLEIK | 0.19
3 | 9B12 (antibody, V domains shown) VH: EVQLLESGGGLVQPGGSLRLSCTASGFTFSDNPMSWVRQAPGKGLDWVSVISESGGSTNDADSVKGRFSTSRDNSKSTLYLDMNSLRAEDTAIYYCAKGRFSTNSDHFYRAVYGMDVWGQGTAVTVSS VL: DIQLTQSPSSLSASVGDRVTITCRASQGISSYLAWYQQKPGKAPKLLIYAASTLQSGVPSRFSGSGSGTDFTLTISSLQPEDFATYYCQQLSSYPLTFGGGTKVEIK | 0.07
